Patent US20250109177A1 (BROAD INSTITUTE, published 2025)
Where no end group is shown, it is not given here.

Experiments:
[1] = target: T1, DDB1·CRBN precomplexed with pomalidomide (human, UniProt Q96SW2 1-442; Q16531 1-1140); test: bio-layer interferometry, immobilized MBP-degron, DDB1·CRBN precomplexed with pomalidomide
T1 construct: also called CRBN·pomalidomide

[2] = target: T2, DDB1·CRBN precomplexed with PT-179 (human, UniProt Q96SW2 1-442; Q16531 1-1140); test: BLI, immobilized MBP-degron; ratio of the KD values
[3] = target: T1, DDB1·CRBN precomplexed with pomalidomide; test: BLI, immobilized MBP-degron, DDB1·CRBN precomplexed with pomalidomide
[4] = target: T2, DDB1·CRBN precomplexed with PT-179; test: bio-layer interferometry, immobilized MBP-degron, DDB1·CRBN precomplexed with PT-179
[5] = target: T2, DDB1·CRBN precomplexed with PT-179; test: BLI, immobilized MBP-degron, DDB1·CRBN precomplexed with PT-179

T1 sequence (Q96SW2 whole entry, chain 1 of 2): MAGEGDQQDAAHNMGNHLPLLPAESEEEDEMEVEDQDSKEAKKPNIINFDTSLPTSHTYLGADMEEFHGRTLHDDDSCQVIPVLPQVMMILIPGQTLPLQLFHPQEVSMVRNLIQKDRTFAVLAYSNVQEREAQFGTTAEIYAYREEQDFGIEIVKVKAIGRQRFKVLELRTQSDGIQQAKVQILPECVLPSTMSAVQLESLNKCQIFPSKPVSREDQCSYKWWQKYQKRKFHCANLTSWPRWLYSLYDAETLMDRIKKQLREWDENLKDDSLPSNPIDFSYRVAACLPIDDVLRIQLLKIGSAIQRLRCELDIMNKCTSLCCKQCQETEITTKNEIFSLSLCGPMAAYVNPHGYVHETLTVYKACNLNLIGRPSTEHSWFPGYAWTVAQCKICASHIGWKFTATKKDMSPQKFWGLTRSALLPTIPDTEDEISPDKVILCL
T1 sequence (Q16531 whole entry, chain 2 of 2): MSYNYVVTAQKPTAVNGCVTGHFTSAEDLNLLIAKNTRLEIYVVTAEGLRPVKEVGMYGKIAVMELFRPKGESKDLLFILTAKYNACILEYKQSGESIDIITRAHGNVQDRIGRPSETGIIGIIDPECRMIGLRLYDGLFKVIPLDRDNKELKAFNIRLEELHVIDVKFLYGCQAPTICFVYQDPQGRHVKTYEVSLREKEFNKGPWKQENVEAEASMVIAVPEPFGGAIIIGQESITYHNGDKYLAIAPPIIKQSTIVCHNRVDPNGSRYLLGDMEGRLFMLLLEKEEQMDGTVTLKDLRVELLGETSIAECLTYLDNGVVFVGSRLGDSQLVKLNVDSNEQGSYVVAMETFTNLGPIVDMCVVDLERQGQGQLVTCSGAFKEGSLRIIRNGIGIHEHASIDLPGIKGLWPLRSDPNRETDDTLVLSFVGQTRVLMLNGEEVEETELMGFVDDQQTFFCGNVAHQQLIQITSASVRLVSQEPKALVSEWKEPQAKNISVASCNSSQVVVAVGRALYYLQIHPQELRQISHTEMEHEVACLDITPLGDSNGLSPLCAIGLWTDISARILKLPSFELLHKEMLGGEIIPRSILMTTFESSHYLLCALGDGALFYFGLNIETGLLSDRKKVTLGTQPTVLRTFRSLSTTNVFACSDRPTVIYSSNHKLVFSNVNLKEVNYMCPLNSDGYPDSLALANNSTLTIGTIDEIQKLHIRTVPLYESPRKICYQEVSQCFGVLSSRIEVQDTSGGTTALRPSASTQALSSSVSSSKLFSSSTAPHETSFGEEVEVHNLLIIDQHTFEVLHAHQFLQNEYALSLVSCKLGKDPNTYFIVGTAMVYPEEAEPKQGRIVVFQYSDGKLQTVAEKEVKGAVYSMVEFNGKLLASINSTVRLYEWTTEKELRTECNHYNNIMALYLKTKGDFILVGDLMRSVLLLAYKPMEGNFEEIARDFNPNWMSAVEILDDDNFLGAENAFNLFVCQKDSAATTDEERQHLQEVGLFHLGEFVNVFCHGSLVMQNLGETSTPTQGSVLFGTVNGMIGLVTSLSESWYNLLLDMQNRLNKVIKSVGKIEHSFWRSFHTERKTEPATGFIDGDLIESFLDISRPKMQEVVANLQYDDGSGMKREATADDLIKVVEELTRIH
T2 sequence (Q96SW2 whole entry, chain 1 of 2): as the sequence (Q96SW2 whole entry, chain 1 of 2) above
T2 sequence (Q16531 whole entry, chain 2 of 2): as the sequence (Q16531 whole entry, chain 2 of 2) above

B1: MBP-SD40 (minimal evolved degron SD40 fused to maltose binding protein) (designed binder, not shown: large carriers)
chain: LLLFCPICGFTCRQKGNLLRHINLHTGEKLFKYHLY
modifications: cysteine pairing not given here; also: fused to maltose binding protein, limits and linker not given here
notes: Expressed and purified from E. coli, immobilized for BLI; also called MBP-degron
B1 was tested, and the koff [1] was 0.0161 s⁻¹, the kon [1] was 54600 M⁻¹ s⁻¹ and the “fold preference for CRBN precomplexed with PT-179 over CRBN precomplexed with pomalidomide” value [2] was 2.4 fold. For the same binder, the Kd [3] was 295 nM, the koff [4] was 0.00528 s⁻¹ and the kon [4] was 42900 M⁻¹ s⁻¹. It also gave a Kd [5] of 123 nM.

B2: MBP-SD0 (super degron SD0 fused to maltose binding protein) (designed binder, not shown: large carriers)
chain: FNVLMVHKRSHTGERPLQCEICGFTCRQKGNLLRHIKLHTGEKPFKCHLCNYACQRRDAL
notes: also called MBP-degron
B2 gave a koff [1] of 0.0509 s⁻¹, a kon [1] of 235000 M⁻¹ s⁻¹ and a Kd [3] of 217 nM.
